Starred links: 1 amine or outer side, 2 acyl side, 3 side chain; linkers in the order of their positions; H or OH if unused. Positions of bridges follow the written chain, without caps; N, C: chain ends. Non-standard residues stand in square brackets, D forms with d. Groups on a side chain read outwards from the residue. Primed or numbered codes have the meaning given here. ξ: configuration not given here. *: point of attachment. DOTA = O=C(O)CN1CCN(CC(=O)O)CCN(CC(=O)*)CCN(CC(=O)O)CC1; Trp(5-Cl) = N[C@@H](Cc1c[nH]c2ccc(Cl)cc12)C(=O)O; ξTrp(5-Me) = Cc1ccc2[nH]cc(CC(N)C(=O)O)c2c1; Ttds(3) = NCCCOCCOCCOCCCNC(=O)CCC(=O)*; 1Nal = N[C@@H](Cc1cccc2ccccc12)C(=O)O; mXylylene = c1cc(C[*:1])cc(C[*:2])c1; Bta = N[C@@H](Cc1csc2ccccc12)C(=O)O; Hydrocinnamoyl = O=C(CCc1ccccc1)*; tBuAla = CC(C)(C)C[C@H](N)C(=O)O; Isovaleryl = CC(C)CC(=O)*; APAc = not defined here; Apr = not defined here; Bz′ = not defined here; Hexanoyl = CCCCCC(=O)*; PhAc = O=C(Cc1ccccc1)*; Sar = CNCC(=O)O
Assays:
[1] = target: human carbonic anhydrase 9 (CAIX) (human, UniProt Q16790 38-459); test: FACS competition on HT-29 cells against tracer 3BP-2776; pIC50 category A = pIC50 >8.0
[2] = target: human carbonic anhydrase 9 (CAIX) (human, UniProt Q16790 38-459); test: FACS competition on HT-29 cells, competitor tracer 3BP-2776; category A = pIC50 >8.0
Protocol: CAIX-expressing human HT-29 colorectal cancer cells (DSMZ, RRID: CVCL_0320) were cultured in McCoys's 5A modified medium (Biochrom, #F1015) including 10% fetal calf serum (FCS), 2 mM L-glutamine, 100 U/ml penicillin and 100 μg/mL streptomycin. Cells were detached with Accutase (Biolegend, #423201) and washed in FACS buffer (PBS including 1% FCS). Cells were diluted in FACS buffer to a final concentration of 500.000 cells per ml. 200 μL of the cell suspension were transferred to a u-shaped non-binding 96-well plate (Greiner) and cells were washed in ice-cold FACS buffer.
When biotinylated compounds were used an additional incubation step with 1 μg/mL APC-Streptavidin (Miltenyi; #130-106-791) in 50 μL FACS buffer for 30 minutes on ice was performed.
Cells were washed twice with ice-cold FACS buffer and analyzed in an Attune NxT flow cytometer (Thermo Fisher). Median fluorescence intensities (MFI) of the APC/Cy5-channel were calculated by Attune NxT software.

pIC50 [1]	pIC50 [2]	Binder
> 8 pic50	–	Hydrocinnamoyl-VYCEGDWLTWQC-NH2 (linker 3-12 via mXylylene; SMILES CC(C)C[C@@H]1NC(=O)[C@H](Cc2c[nH]c3ccccc23)NC(=O)[C@H](CC(=O)O)NC(=O)CNC(=O)[C@H](CCC(=O)O)NC(=O)[C@@H](NC(=O)[C@H](Cc2ccc(O)cc2)NC(=O)[C@@H](NC(=O)CCc2ccccc2)C(C)C)CSCc2cccc(c2)CSC[C@@H](C(N)=O)NC(=O)[C@H](CCC(N)=O)NC(=O)[C@H](Cc2c[nH]c3ccccc23)NC(=O)[C@H]([C@@H](C)O)NC1=O) [3BP-3110]
> 8 pic50	–	Ac-VYCE[Sar]D[Bta]LTWQC-NH2 (linker 3-12 via mXylylene; SMILES CC(=O)N[C@H](C(=O)N[C@@H](Cc1ccc(O)cc1)C(=O)N[C@H]1CSCc2cccc(c2)CSC[C@@H](C(N)=O)NC(=O)[C@H](CCC(N)=O)NC(=O)[C@H](Cc2c[nH]c3ccccc23)NC(=O)[C@H]([C@@H](C)O)NC(=O)[C@H](CC(C)C)NC(=O)[C@H](Cc2csc3ccccc23)NC(=O)[C@H](CC(=O)O)NC(=O)CN(C)C(=O)[C@H](CCC(=O)O)NC1=O)C(C)C, also called Ac-Val-Tyr-[Cys(3MeBn)-Glu-Nmg-Asp-Bta-Leu-Thr-Trp-Gln-Cys]-NH2) [3BP-3311]
–	> 8 pic50	Ac-VFCE[dP]DWLTWE([Apr-DOTA])C-NH2 (linker 3-12 via mXylylene; reading uncertain) [3BP-3874]
–	> 8 pic50	{DOTA-APAc}-VYCE[dP]NWLTWSC-NH2 (linker 3-12 via mXylylene; reading uncertain) [3BP-4103]
–	> 8 pic50	Ac-VYCE[dP]KWLEWSC-NH2 (linker 3-12 via mXylylene; lactam 6-9; SMILES CC(=O)N[C@H](C(=O)N[C@@H](Cc1ccc(O)cc1)C(=O)N[C@H]1CSCc2cccc(c2)CSC[C@@H](C(N)=O)NC(=O)[C@H](CO)NC(=O)[C@H](Cc2c[nH]c3ccccc23)NC(=O)[C@@H]2CCC(=O)NCCCC[C@H](NC(=O)[C@H]3CCCN3C(=O)[C@H](CCC(=O)O)NC1=O)C(=O)N[C@@H](Cc1c[nH]c3ccccc13)C(=O)N[C@@H](CC(C)C)C(=O)N2)C(C)C) [3BP-3890]
–	> 8 pic50	Ac-VYCE[dP]KWL[dE]WSC-NH2 (linker 3-12 via mXylylene; lactam 6-9; SMILES CC(=O)N[C@H](C(=O)N[C@@H](Cc1ccc(O)cc1)C(=O)N[C@H]1CSCc2cccc(c2)CSC[C@@H](C(N)=O)NC(=O)[C@H](CO)NC(=O)[C@H](Cc2c[nH]c3ccccc23)NC(=O)[C@H]2CCC(=O)NCCCC[C@H](NC(=O)[C@H]3CCCN3C(=O)[C@H](CCC(=O)O)NC1=O)C(=O)N[C@@H](Cc1c[nH]c3ccccc13)C(=O)N[C@@H](CC(C)C)C(=O)N2)C(C)C) [3BP-3957]
> 8 pic50	–	{DOTA-Ttds(3)}-VYCE[Sar]DWLTWQC-NH2 (linker 3-12 via mXylylene, also called DOTA-Ttds-Val-Tyr-[Cys(3MeBn)-Glu-Nmg-Asp-Trp-Leu-Thr-Trp-Gln-Cys]-NH2) [3BP-3271]
> 8 pic50	–	Ac-VYCE[Sar]D[1Nal]LTWQC-NH2 (linker 3-12 via mXylylene; SMILES CC(=O)N[C@H](C(=O)N[C@@H](Cc1ccc(O)cc1)C(=O)N[C@H]1CSCc2cccc(c2)CSC[C@@H](C(N)=O)NC(=O)[C@H](CCC(N)=O)NC(=O)[C@H](Cc2c[nH]c3ccccc23)NC(=O)[C@H]([C@@H](C)O)NC(=O)[C@H](CC(C)C)NC(=O)[C@H](Cc2cccc3ccccc23)NC(=O)[C@H](CC(=O)O)NC(=O)CN(C)C(=O)[C@H](CCC(=O)O)NC1=O)C(C)C, also called Ac-Val-Tyr-[Cys(3MeBn)-Glu-Nmg-Asp-1Ni-Leu-Thr-Trp-Gln-Cys]-NH2) [3BP-3314]
> 8 pic50	–	{Bz′}-VYCEGDWLTWQC-NH2 (linker 3-12 via mXylylene) [3BP-3108]
> 8 pic50	–	PhAc-VYCEGDWLTWQC-NH2 (linker 3-12 via mXylylene; SMILES CC(C)C[C@@H]1NC(=O)[C@H](Cc2c[nH]c3ccccc23)NC(=O)[C@H](CC(=O)O)NC(=O)CNC(=O)[C@H](CCC(=O)O)NC(=O)[C@@H](NC(=O)[C@H](Cc2ccc(O)cc2)NC(=O)[C@@H](NC(=O)Cc2ccccc2)C(C)C)CSCc2cccc(c2)CSC[C@@H](C(N)=O)NC(=O)[C@H](CCC(N)=O)NC(=O)[C@H](Cc2c[nH]c3ccccc23)NC(=O)[C@H]([C@@H](C)O)NC1=O) [3BP-3109]
> 8 pic50	–	Ac-VYCEGDW[tBuAla]TWQC-NH2 (linker 3-12 via mXylylene; SMILES CC(=O)N[C@H](C(=O)N[C@@H](Cc1ccc(O)cc1)C(=O)N[C@H]1CSCc2cccc(c2)CSC[C@@H](C(N)=O)NC(=O)[C@H](CCC(N)=O)NC(=O)[C@H](Cc2c[nH]c3ccccc23)NC(=O)[C@H]([C@@H](C)O)NC(=O)[C@H](CC(C)(C)C)NC(=O)[C@H](Cc2c[nH]c3ccccc23)NC(=O)[C@H](CC(=O)O)NC(=O)CNC(=O)[C@H](CCC(=O)O)NC1=O)C(C)C, also called Ac-Val-Tyr-[Cys(3MeBn)-Glu-Gly-Asp-Trp-Npg-Thr-Trp-Gln-Cys]-NH2) [3BP-3065]
> 8 pic50	–	Isovaleryl-VYCEGDWLTWQC-NH2 (linker 3-12 via mXylylene; SMILES CC(C)CC(=O)N[C@H](C(=O)N[C@@H](Cc1ccc(O)cc1)C(=O)N[C@H]1CSCc2cccc(c2)CSC[C@@H](C(N)=O)NC(=O)[C@H](CCC(N)=O)NC(=O)[C@H](Cc2c[nH]c3ccccc23)NC(=O)[C@H]([C@@H](C)O)NC(=O)[C@H](CC(C)C)NC(=O)[C@H](Cc2c[nH]c3ccccc23)NC(=O)[C@H](CC(=O)O)NC(=O)CNC(=O)[C@H](CCC(=O)O)NC1=O)C(C)C) [3BP-3111]
> 8 pic50	–	Ac-VYCE[Sar]D[Trp(5-Cl)]LTWQC-NH2 (linker 3-12 via mXylylene; SMILES CC(=O)N[C@H](C(=O)N[C@@H](Cc1ccc(O)cc1)C(=O)N[C@H]1CSCc2cccc(c2)CSC[C@@H](C(N)=O)NC(=O)[C@H](CCC(N)=O)NC(=O)[C@H](Cc2c[nH]c3ccccc23)NC(=O)[C@H]([C@@H](C)O)NC(=O)[C@H](CC(C)C)NC(=O)[C@H](Cc2c[nH]c3ccc(Cl)cc23)NC(=O)[C@H](CC(=O)O)NC(=O)CN(C)C(=O)[C@H](CCC(=O)O)NC1=O)C(C)C, also called Ac-Val-Tyr-[Cys(3MeBn)-Glu-Nmg-Asp-5Clw-Leu-Thr-Trp-Gln-Cys]-NH2) [3BP-3289]
> 8 pic50	–	Hexanoyl-VYCEGDWLTWQC-NH2 (linker 3-12 via mXylylene; SMILES CCCCCC(=O)N[C@H](C(=O)N[C@@H](Cc1ccc(O)cc1)C(=O)N[C@H]1CSCc2cccc(c2)CSC[C@@H](C(N)=O)NC(=O)[C@H](CCC(N)=O)NC(=O)[C@H](Cc2c[nH]c3ccccc23)NC(=O)[C@H]([C@@H](C)O)NC(=O)[C@H](CC(C)C)NC(=O)[C@H](Cc2c[nH]c3ccccc23)NC(=O)[C@H](CC(=O)O)NC(=O)CNC(=O)[C@H](CCC(=O)O)NC1=O)C(C)C) [3BP-3107]
> 8 pic50	–	Ac-VYCE[Sar]D[ξTrp(5-Me)]LTWQC-NH2 (linker 3-12 via mXylylene; not fully specified; also: position 7 is DL-5-methyltryptophan, configuration not given here, also called Ac-Val-Tyr-[Cys(3MeBn)-Glu-Nmg-Asp-Egc-Leu-Thr-Trp-Gln-Cys]-NH2) [3BP-3290]

Source: US20250339569A1 (3B PHARMACEUTICALS, published 2025)
